Patent US20240301031A1 (JIANGSU HENGRUI PHARMACEUTICALS, published 2024)
Where two headings read alike, the source gives them in different places.

T1: human APRIL (5860-AP-010/CF, R&D Systems) (human, UniProt O75888 115-250, limits assumed)
T1 sequence (looked up): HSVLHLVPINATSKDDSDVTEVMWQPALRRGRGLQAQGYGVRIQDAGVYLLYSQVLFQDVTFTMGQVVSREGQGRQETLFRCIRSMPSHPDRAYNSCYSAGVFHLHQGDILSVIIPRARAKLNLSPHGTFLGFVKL

T2: IL-12/23 p40 (Sino biological, 10052-H08H) (UniProt P29460 23-328)
T2 construct: Bought protein
T2 sequence (looked up): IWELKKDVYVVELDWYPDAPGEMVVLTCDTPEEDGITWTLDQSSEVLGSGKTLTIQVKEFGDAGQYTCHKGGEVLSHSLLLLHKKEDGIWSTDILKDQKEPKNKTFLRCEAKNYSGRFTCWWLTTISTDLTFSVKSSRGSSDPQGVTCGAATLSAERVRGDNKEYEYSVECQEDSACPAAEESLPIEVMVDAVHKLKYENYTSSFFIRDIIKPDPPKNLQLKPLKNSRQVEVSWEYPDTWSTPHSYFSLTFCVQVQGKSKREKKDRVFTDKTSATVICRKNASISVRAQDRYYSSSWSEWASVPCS


Tests used:
[1] = target: T3, BAFF (R&D Systems, 7537-BF) (UniProt Q9Y275 134-285); test: cell-based or functional assay
[2] = target: T1, human APRIL (5860-AP-010/CF, R&D …); test: cell-based or functional assay
[3] = target: T4, human BAFF (10056-HNCH, Sino biological) (human, UniProt Q9Y275 134-285); test: competition ELISA: biotin-labeled BAFF to coated BAFF-R
T4 construct: Bought protein
Procedure: The blocking activity of the antibodies and the fusion proteins for receptors and ligands such as BAFF/BAFF-R, BAFF/BCMA, BAFF/TACI, APRIL/BCMA, APRIL/TACI, and p40/IL-12R1 was assayed by the ELISA method. The specific procedures were as follows:
(§1) A receptor protein was diluted to 2 μg/mL with PBS at pH 7.4 (BasalMedia, B320) and added to a 96-well microplate (Corning, 3590) at 100 μL/well. The plate was incubated at 4° C. overnight. After the liquid was discarded, 200 μL of 1% Casein blocking solution (Thermo, 37528) was added to each well for blocking, and the plate was incubated at 37° C. for 2 h. After the blocking was completed, the blocking solution was discarded, and the plate was washed 3 times with a PBST buffer (PBS at pH 7.4 containing 0.1% tween-20) for later use. A biotin-labeled ligand protein at a fixed concentration was mixed with the antibody or fusion protein diluted in gradient, pre-incubated at 37° C. for 30 min, and added to a blocked microplate. The plate was incubated at 37° C. for 1.5 h. After the incubation was completed, the plate was washed 3 times with PBST. 100 μL of streptavidin-HRP (Invitrogen, 434323, diluted at a ratio of 1:4000) was added to each well, and the plate was incubated at 37° C. for 1 h. The supernatant was removed, and the plate was washed 3 times with PBST. 100 μL of TMB chromogenic substrate (KPL, 5120-0077) was added to each well, and the plate was incubated at room temperature for 10-15 min. The reaction was stopped by adding 50 μL of 1 M H₂SO₄ to each well. The plate was read for absorbance values at 450 nm on a microplate reader, the curves for the inhibition of the binding of the ligands to the receptors were fitted with software, and the IC₅₀ values were calculated.

[4] = target: T5, BAFF (ACROBiosystems, BAF-H5248) (UniProt Q9Y275 134-285); test: ELISA, fusion protein coated, BAFF titrated, Anti-His-HRP
T5 construct: Bought protein used in the ELISA with coated test sample
Procedure: The binding activity of the TACI fusion proteins for BAFF and APRIL was assayed by the ELISA method (coating a test fusion protein sample). The specific procedures were as follows:
The test sample was diluted to 2 μg/mL with a PBS (BasalMedia, B320) buffer at pH 7.4 and added to a 96-well microplate (Corning, 3590) at 100 μL/well. The plate was incubated at 4° C. overnight. After the liquid was discarded, 300 μL of 5% skim milk (BD, 232100) diluted with PBS was added to each well for blocking, and the plate was incubated at 37° C. for 2 h. After the blocking was completed, the blocking solution was discarded, and the plate was washed 3 times with a PBST buffer (PBS at pH 7.4 containing 0.1% tween-20). 100 μL of BAFF (ACROBiosystems, BAF-H5248) or APRIL (R&D Systems, 5860-AP-010/CF) diluted in a gradient was added to each well, and the plate was incubated at 37° C. for 1 h. After the incubation, the plate was washed 3 times with PBST. When detecting the binding to BAFF, 100 μL of Anti-His-HRP (Sino biological, 105327-MM02T-H, diluted at a ratio of 1:2000) was added to each well; when detecting the binding to APRIL, 100 μL of anti-HA-HRP (Abcam, ab1190, diluted at a ratio of 1:4000) was added to each well. The plate was incubated at 37° C. for 1 h. The plate was washed 3 times with PBST. 100 μL of TMB chromogenic substrate (KPL, 5120-0077) was added to each well, and the plate was incubated at room temperature for 10-15 min. The reaction was stopped by adding 50 μL of 1 M H₂SO₄ to each well. The plate was read for absorbance values at 450 nm on a microplate reader, the binding curves of the antibodies to an antigen were fitted with software, and the EC₅₀ values were calculated.

[5] = target: T1, human APRIL (5860-AP-010/CF, R&D …); test: ELISA, APRIL coated
[6] = target: T3, BAFF (R&D Systems, 7537-BF); test: cell-based or functional assay; remark: listed apart in the source
[7] = target: T2, IL-12/23 p40 (Sino biological, …); test: ELISA, IL-12/23 p40 coated
[8] = target: T4, human BAFF (10056-HNCH, Sino biological); test: competition ELISA: biotin-labeled BAFF to coated BCMA
Procedure: as §1, with “100 μL of TMB chromogenic substrate (KPL, 5120-0077) was added to each well, and the plate was incubated at room temperature for 10-15 min. The reaction was stopped by adding 50 μL of 1 M H₂SO₄ to each well.” left out, “calculated. […]” for “calculated.”

[9] = target: T4, human BAFF (10056-HNCH, Sino biological); test: competition ELISA: biotin-labeled BAFF to coated TACI
Procedure: as §1, with “100 μL of TMB chromogenic substrate (KPL, 5120-0077) was added to each well, and the plate was incubated at room temperature for 10-15 min. The reaction was stopped by adding 50 μL of 1 M H₂SO₄ to each well.” left out, “calculated. […]” for “calculated.”

[10] = target: T4, human BAFF (10056-HNCH, Sino biological); test: SPR (Biacore), sample captured on Protein A, antigen flowed, 1:1 fit
Procedure: (§2) A certain amount of test sample was subjected to affinity capture by a biosensor chip Protein A (GE, 29127556), then antigens at a series of concentration gradients were allowed to flow on the surface of the chip. The reaction signals were detected in real time by using Biacore (GE, 8K) to obtain association and dissociation curves. After the dissociation was completed for each cycle, the biochip was washed and regenerated with a 10 mM glycine-hydrochloric acid solution at pH 1.5 (GE, BR-1003-54). The experimental data were fitted using BIAevaluation version 4.1, GE software with a 1:1 model to obtain affinity values. The related antigen proteins used in this assay are as follows: human IL-23 (CT048-H08H, Sino biological), human IL-12 (CT050-H08H, Sino biological), human BAFF (10056-HNCH, Sino biological), human APRIL (5860-AP-010/CF, R&D Systems), cynomolgus monkey p40 (10215-CL, R&D Systems), cynomolgus monkey BAFF (BAF-CM412B, Kactus), cynomolgus monkey APRIL (APR-CM410B, Kactus), mouse BAFF (BAF-M521y, Acro Biosystems), and mouse APRIL (7907-AP/CF, R&D Systems).

[11] = target: T6, cynomolgus monkey BAFF (BAF-CM412B, Kactus) (cynomolgus monkey, UniProt A0A2K5V2X4 134-285); test: as above
T6 construct: Bought protein
Procedure: as §2

[12] = target: T7, mouse BAFF (BAF-M521y, Acro Biosystems) (mouse, UniProt Q9WU72 127-309); test: as above
T7 construct: Bought protein
Procedure: as §2

[13] = target: T4, human BAFF (10056-HNCH, Sino biological); test: competition ELISA: BAFF-R coated on the plate, biotin-labelled BAFF at a fixed concentration pre-incubated with the diluted sample, streptavidin-HRP, OD450 (blocked ligand-receptor pair: BAFF/BAFF-R)
Procedure: as §1, with “100 μL of TMB chromogenic substrate (KPL, 5120-0077) was added to each well, and the plate was incubated at room temperature for 10-15 min. The reaction was stopped by adding 50 μL of 1 M H₂SO₄ to each well.” left out, “calculated. […]” for “calculated.”

Binder	IC50 (nM) for the inhibition of the BAFF-induced B cell proliferation [1] [nM]	IC50 (nM) for the inhibition of the APRIL-induced B cell proliferation [2] [nM]	IC50 [3] [pM]	EC50 [4] [pM]	other results
TACI-9-15Fc8 fusion protein (Fc fusion, Full-length chain) STSCREEQGEFYDHLLRDCISCASICGQHPKQCAAFCEEPKSSDKTHTCPPCPAPEAEGAPSVFLFPPKPKDTLMISRTPEVTCVVVDVSHEDPEVKFNWYVDGVEVHNAKTKPREEQYNSTYRVVSVLTVLHQDWLNGKEYKCKVSNKALPSSIEKTISKAKGQPREPQVYTLPPSRDELTKNQVSLTCLVKGFYPSDIAVEWESNGQPENNYKTTPPVLDSDGSFFLYSKLTVDKSRWQQGNVFSCSVMHEALHNHYTQKSLSLSPGGGGSSTSCREEQGEFYDHLLRDCISCASICGQHPKQCAAFCESK	0.0291	0.00477	1560	10500	–
Belimumab (antibody, human IgG1, lambda, V domains shown, Marketed control antibody; also called anti-BAFF antibody belimumab) VH: QVQLQQSGAEVKKPGSSVRVSCKASGGTFNNNAINWVRQAPGQGLEWMGGIIPMFGTAKYSQNFQGRVAITADESTGTASMELSSLRSEDTAVYYCARSRDLLLFPHHALSPWGRGTMVTVSS VL: SSELTQDPAVSVALGQTVRVTCQGDSLRSYYASWYQQKPGQAPVLVIYGKNNRPSGIPDRFSGSSSGNTASLTITGAQAEDEADYYCSSRDSSGNHWVFGGGTELTVLG	–	–	–	–	binding result [5]: no binding; IC50 (nM) for the inhibition of the BAFF-induced B cell proliferation [6]: 0.146 nM; binding result [7]: no binding; IC50 [8]: 458 pM; IC50 [9]: 567 pM; Kd [10]: 105 pM; koff [10]: 0.000171 s⁻¹; kon [10]: 1.64e+06 M⁻¹ s⁻¹; Kd [11]: 459 pM; koff [11]: 0.000221 s⁻¹; kon [11]: 481000 M⁻¹ s⁻¹; Kd [12]: 104 pM; koff [12]: 0.000144 s⁻¹; kon [12]: 1.38e+06 M⁻¹ s⁻¹; IC50 (read off the curve) [13]: ~700 pM
TACI-9-15Fc6 fusion protein (Fc fusion, Full-length chain) STSCREEQGEFYDHLLRDCISCASICGQHPKQCAAFCEEPKSSDKTHTCPPCPAPEAEGAPSVFLFPPKPKDTLMISRTPEVTCVVVDVSHEDPEVKFNWYVDGVEVHNAKTKPREEQYNSTYRVVSVLTVLHQDWLNGKEYKCKVSNKALPSSIEKTISKAKGQPREPQVYTLPPSRDELTKNQVSLTCLVKGFYPSDIAVEWESNGQPENNYKTTPPVLDSDGSFFLYSKLTVDKSRWQQGNVFSCSVMHEALHNHYTQKSLSLSPGK	0.0481	0.14	1870	8480	–

Now from value to binder, other results behind:

IC50 (nM) for the inhibition of the BAFF-induced B cell proliferation [1] [nM]	IC50 (nM) for the inhibition of the APRIL-induced B cell proliferation [2] [nM]	IC50 [3] [pM]	EC50 [4] [pM]	Binder	other results
0.0262	0.00947	1180	8940	TACI-9-15Fc9 fusion protein (Fc fusion, Full-length chain) STSCREEQGEFYDHLLRDCISCASICGQHPKQCAAFCEEPKSSDKTHTCPPCPAPEAEGAPSVFLFPPKPKDTLMISRTPEVTCVVVDVSHEDPEVKFNWYVDGVEVHNAKTKPREEQYNSTYRVVSVLTVLHQDWLNGKEYKCKVSNKALPSSIEKTISKAKGQPREPQVYTLPPSRDELTKNQVSLTCLVKGFYPSDIAVEWESNGQPENNYKTTPPVLDSDGSFFLYSKLTVDKSRWQQGNVFSCSVMHEALHNHYTQKSLSLSPGGGGSSTSCREEQGEFYDHLLRDCISCASICGQHPKQCAAFCESS	–
0.0244	0.00481	1380	8950	TACI-9-15Fc7 fusion protein (Fc fusion, Full-length chain) STSCREEQGEFYDHLLRDCISCASICGQHPKQCAAFCEEPKSSDKTHTCPPCPAPEAEGAPSVFLFPPKPKDTLMISRTPEVTCVVVDVSHEDPEVKFNWYVDGVEVHNAKTKPREEQYNSTYRVVSVLTVLHQDWLNGKEYKCKVSNKALPSSIEKTISKAKGQPREPQVYTLPPSRDELTKNQVSLTCLVKGFYPSDIAVEWESNGQPENNYKTTPPVLDSDGSFFLYSKLTVDKSRWQQGNVFSCSVMHEALHNHYTQKSLSLSPGGGGSSTSCREEQGEFYDHLLRDCISCASICGQHPKQCAAFCEQK	–
